Data taken from publication PMC10932109, “Solution Structures of Two Different FRP-OCP Complexes as Revealed via SEC-SANS” (International Journal of Molecular Sciences, 2024).
“And” between values parts separate entries of the source, which are not always exact repeats. Equal values may be shown once.

T1: orange carotenoid protein lacking the N-terminal extension (^∆NTEOCP^O) (Synechocystis sp. PCC 6803, UniProt P74102 13-317)
T1 construct: glycine left from the human rhinovirus 3C protease site (LEVLFQ/GP) after cleavage; the P of GP is read as Pro13 of OCP; Orange carotenoid protein (OCP), Synechocystis sp; PCC 6803, slr1963, from Pro13 (P-NTLAA...) to the C-terminus; the N-terminal extension is removed with the His-tag by 3C cleavage; Gene optimised for E. coli, vector pRSFDuet-1; also called ^ΔNTEOCP^O; compact mutant of OCP …
T1 sequence: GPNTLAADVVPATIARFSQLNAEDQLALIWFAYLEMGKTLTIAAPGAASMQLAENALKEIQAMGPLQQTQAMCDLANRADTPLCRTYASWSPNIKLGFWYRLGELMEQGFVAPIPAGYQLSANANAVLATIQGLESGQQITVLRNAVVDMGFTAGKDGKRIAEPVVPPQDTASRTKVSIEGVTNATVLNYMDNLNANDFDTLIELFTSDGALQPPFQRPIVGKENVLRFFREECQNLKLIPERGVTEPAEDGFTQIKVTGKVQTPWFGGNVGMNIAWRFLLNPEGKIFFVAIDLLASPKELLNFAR

B1: fluorescence recovery protein (FRP), wild type (natural protein, Synechocystis sp. PCC 6803)
chain: LQTAEAPWSQAETQSAHALFRKAYQRELDGLLATVQAQASQITQIDDLWKLHDFLSAKRHEIDGKYDDRQSVIIFVFAQLLKEGLVQAEELTFLAADKQSKIKALARL
notes: Fluorescence recovery protein (FRP), Synechocystis sp; PCC 6803, slr1964, wild type; also called wild-type FRP; dimeric FRP; source: E. coli, purified (Superdex 200 Increase 10/300, phosphate-buffered saline)

How the values were obtained:
[1] = target: OCPO (Synechocystis sp. PCC 6803) (UniProt P74102); conditions: cited from earlier work
[2] = target: OCPR (Synechocystis sp. PCC 6803) (UniProt P74102); conditions: cited from earlier work
[3] = target: the molecule itself; test: SEC + other: SANS; in-line SEC-SANS at D22 (ILL); Superdex 200 Increase 10/300 GL; 25 °C; 250 µL injected at about 5 mg/mL total protein; two fractions (high MW, low MW) analysed separately; stoichiometries assigned from dimensions, DAMMIF shapes and Pepsi-SANS FlexFit models
[4] = target: T1, orange carotenoid protein lacking the …; test: as above; conditions: both partners purified

Molecule	Kd [1] [µM]	Kd [2] [µM]	binding result [3]	stoichiometry N [4]
FRP (from UniProt P74103)	35	3		
B1			binds	2 FRP per ^∆NTEOCP^O (2:1 complex, low MW fraction) and 1 FRP per ^∆NTEOCP^O (2:2 complex, high MW fraction)
